Experimental data: publication PMC314469, “Protein Interaction Networks by Proteome Peptide Scanning” (PLoS Biology, 2004)

T1: Abp1 SH3 (ABP1_YEAST), P15891
T1 chain: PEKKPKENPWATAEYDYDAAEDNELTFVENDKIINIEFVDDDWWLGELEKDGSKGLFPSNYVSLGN

T2: Boi1 SH3 (BOI1_YEAST), P38041
T2 chain: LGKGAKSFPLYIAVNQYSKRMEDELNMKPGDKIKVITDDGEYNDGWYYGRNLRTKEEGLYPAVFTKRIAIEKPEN

T3: Boi2 SH3 (BOI2_YEAST), P39969
T3 chain: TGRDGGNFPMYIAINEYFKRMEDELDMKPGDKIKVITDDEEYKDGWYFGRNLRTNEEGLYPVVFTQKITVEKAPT

T4: Myo5 SH3 (MYO5_YEAST), Q04439
T4 chain: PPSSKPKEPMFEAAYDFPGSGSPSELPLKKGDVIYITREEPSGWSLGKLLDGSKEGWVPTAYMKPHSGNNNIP

T5: Rvs167 SH3 (RV167_YEAST), P39743
T5 chain: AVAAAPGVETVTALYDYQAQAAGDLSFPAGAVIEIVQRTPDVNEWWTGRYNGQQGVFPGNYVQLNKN

T6: Yfr024 SH3 (LSB3_YEAST), P43603
T6 chain: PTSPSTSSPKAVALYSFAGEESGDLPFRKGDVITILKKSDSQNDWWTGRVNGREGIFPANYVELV

T7: Yhr016c SH3 (YSC84_YEAST), P32793
T7 chain: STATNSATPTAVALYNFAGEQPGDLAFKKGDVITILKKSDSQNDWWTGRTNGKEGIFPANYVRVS


Key:
Experiment in all cases: SPOT array
[1] = target: T1, Abp1 SH3 (ABP1_YEAST), P15891
[2] = target: T2, Boi1 SH3 (BOI1_YEAST), P38041
[3] = target: T3, Boi2 SH3 (BOI2_YEAST), P39969
[4] = target: T4, Myo5 SH3 (MYO5_YEAST), Q04439
[5] = target: T5, Rvs167 SH3 (RV167_YEAST), P39743
[6] = target: Sho1 SH3 (SHO1_YEAST), P40073
[7] = target: T6, Yfr024 SH3 (LSB3_YEAST), P43603
[8] = target: T7, Yhr016c SH3 (YSC84_YEAST), P32793

Chain of Sho1 SH3 (SHO1_YEAST), P40073 (P40073 295-366): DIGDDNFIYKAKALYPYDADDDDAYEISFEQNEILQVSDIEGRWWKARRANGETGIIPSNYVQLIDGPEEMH

Row | Binder | normalised SPOT signal, Boehringer light units (BLU); mean over the file's lines of this peptide [1] | normalised SPOT signal, Boehringer light units (BLU); mean over the file's lines of this peptide [2] | normalised SPOT signal, Boehringer light units (BLU); mean over the file's lines of this peptide [3] | normalised SPOT signal, Boehringer light units (BLU); mean over the file's lines of this peptide [4] | normalised SPOT signal, Boehringer light units (BLU); mean over the file's lines of this peptide [5] | normalised SPOT signal, Boehringer light units (BLU); mean over the file's lines of this peptide [6] | normalised SPOT signal, Boehringer light units (BLU); mean over the file's lines of this peptide [7] | normalised SPOT signal, Boehringer light units (BLU); mean over the file's lines of this peptide [8]
1 | EYSPRPSPWLPSKP [YDR151C 76-89] | 519 | 184 | 22.4 | 73.7 | 54.8 | 34.7 | 668 | 107
2 | NGKDKSRPPRPPPK [YIL095W 742-755] |  | 664 | 31.9 | 2620 | 127 | 2640 | 12900 | 162
3 | TIEARVHPEPPNKP [YDR330W 403-416] | 36.2 | 0 | 20.8 | 375 | 26.6 | 32.7 | 44.2 | 1
4 | NIFQKQLPKMPKEY [YGR252W 122-135] |  | 646 | 203 | 276 | 555 | 16700 | 392 | 4960
5 | VKPTKLEPENPQKP [YFL054C 234-247] | 42.5 | 49.7 | 8.7 | 91.3 | 28 | 23.8 | 17 | 22.4
6 | NESEKSSPWSPYKV [YBR156C 157-170] |  | 96.5 | 28.4 | 222 | 74.7 | 26.5 | 408 | 30.5
7 | NGMPRRIPDYPDAF [Q0045 434-447] |  | 404 | 318 | 223 | 338 | 28.9 | 1300 | 858
8 | ENTPRPNPTQPRKP [YDR359C 772-785] | 102 | 154 | 0 | 137 | 53.6 | 13.1 | 205 | 54.9

Further lines, results first:

Row | normalised SPOT signal, Boehringer light units (BLU); mean over the file's lines of this peptide [1] | normalised SPOT signal, Boehringer light units (BLU); mean over the file's lines of this peptide [2] | normalised SPOT signal, Boehringer light units (BLU); mean over the file's lines of this peptide [3] | normalised SPOT signal, Boehringer light units (BLU); mean over the file's lines of this peptide [4] | normalised SPOT signal, Boehringer light units (BLU); mean over the file's lines of this peptide [5] | normalised SPOT signal, Boehringer light units (BLU); mean over the file's lines of this peptide [6] | normalised SPOT signal, Boehringer light units (BLU); mean over the file's lines of this peptide [7] | normalised SPOT signal, Boehringer light units (BLU); mean over the file's lines of this peptide [8] | Binder
9 | 80000 | 1170 | 26.1 | 67400 | 1050 | 5190 | 6360 | 114 | RPKRRAPPPVPKKP [YIR003W 383-396]
10 |  | 72.4 | 24.2 | 173 | 87.9 | 3.7 | 381 | 22.7 | NGTWKYNPTVPNEL [YPR151C 143-156]
11 |  | 228 | 28.4 | 618 | 67.9 | 74.5 | 679 | 95.9 | NFPQRMMPPPPGLV [YKL204W 475-488]
12 | 1030 | 412 | 37 | 382 | 68.7 | 86.4 | 751 | 150 | KRNSKHAPFIPVKP [YPR095C 154-167]
13 | 184 | 120 | 10.5 | 178 | 76.3 | 62.9 | 3610 | 602 | VASSRTEPSTPSRP [YJL095W 1074-1087]
14 | 77200 | 353 | 40.8 | 180 | 71.4 | 331 | 211 | 22.7 | SKDKKTKPTPPPKP [YNL020C 602-615]
15 | 224 | -0 | -0 | 210 | 68.4 | 44.7 | 242 | 15.9 | YTYSRNEPVIPTKP [YNL139C 1275-1288]
